# According to IntAct's records for PubMed 21209328:
# B1: PEP-dependent dihydroxyacetone kinase, ADP-binding subunit DhaL (Escherichia coli (strain K12)), P76014 (parent)
# chain: MSLSRTQIVNWLTRCGDIFSTESEYLTGLDREIGDADHGLNMNRGFSKVVEKLPAIADKDIGFILKNTGMTLLSSVGGASGPLFGTFFIRAAQATQARQSLTLEELYQMFRDGADGVISRGKAEPGDKTMCDVWVPVVESLRQSSEQNLSVPVALEAASSIAESAAQSTITMQARKGRASYLGERSIGHQDPGATSVMFMMQMLALAAKE
# partner: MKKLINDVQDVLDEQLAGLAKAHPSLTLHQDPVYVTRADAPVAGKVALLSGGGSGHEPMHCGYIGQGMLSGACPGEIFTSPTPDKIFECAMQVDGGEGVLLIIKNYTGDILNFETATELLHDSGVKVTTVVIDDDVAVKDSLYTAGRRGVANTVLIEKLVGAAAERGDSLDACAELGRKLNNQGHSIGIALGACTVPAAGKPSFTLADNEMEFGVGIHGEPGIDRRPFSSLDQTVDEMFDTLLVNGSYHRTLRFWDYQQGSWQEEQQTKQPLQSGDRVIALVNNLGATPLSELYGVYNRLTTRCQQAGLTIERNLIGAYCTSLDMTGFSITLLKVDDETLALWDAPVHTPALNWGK
# Variants of: B1
# Conditions: with dhak_ecoli dhaK
row,effect of a mutation on the interaction,Variant
1,disrupting interaction strength,R178E
